What was measured:
C1q (human) [1] = target: C1q (human) (UniProt P02745); test: FACS, C1q titrated on Daudi cells opsonized with the mix; Exp. 6
C1q (human) [2] = target: C1q (human) (UniProt P02745); test: cell-based or functional assay
C1q (human) [3] = target: C1q (human) (UniProt P02745); test: C1q binding ELISA: antibody coated in a dilution series (0.58-10 µg/mL), 3% pooled human serum as source of C1q, rabbit anti-human C1q and swine anti-rabbit IgG-HRP, ABTS, OD 405 nm
C1q (human) [4] = target: C1q (human) (UniProt P02745); test: FACS, C1q titrated on mAb-opsonized Daudi cells; Exp. 11
C1q (human) [5] = target: C1q (human) (UniProt P02745); test: FACS, C1q titrated on mAb-opsonized Daudi cells; Exp. 10
C1q (human) [6] = target: C1q (human) (UniProt P02745); test: FACS, C1q titrated on mAb-opsonized Daudi cells; Exp. 1
C1q (human) [7] = target: C1q (human) (UniProt P02745); test: FACS, C1q titrated on mAb-opsonized Raji cells; Exp. 1
C1q (human) [8] = target: C1q (human) (UniProt P02745); test: C1q ELISA, coated antibody series + 3% human serum; mean
C1q (human) [9] = target: C1q (human) (UniProt P02745); test: FACS, C1q titrated on mAb-opsonized Raji cells; Exp. 3

C1q (human), sequence (P02745 23-245 limits assumed, chain 1 of 3): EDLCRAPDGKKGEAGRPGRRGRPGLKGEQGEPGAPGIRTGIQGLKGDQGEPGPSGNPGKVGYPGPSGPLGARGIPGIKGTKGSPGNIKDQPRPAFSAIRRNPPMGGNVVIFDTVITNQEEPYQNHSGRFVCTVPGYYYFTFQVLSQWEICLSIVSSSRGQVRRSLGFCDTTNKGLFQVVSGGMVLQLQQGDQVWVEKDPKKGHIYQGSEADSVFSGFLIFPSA
C1q (human), sequence (P02746 28-253 limits assumed, chain 2 of 3, further chain): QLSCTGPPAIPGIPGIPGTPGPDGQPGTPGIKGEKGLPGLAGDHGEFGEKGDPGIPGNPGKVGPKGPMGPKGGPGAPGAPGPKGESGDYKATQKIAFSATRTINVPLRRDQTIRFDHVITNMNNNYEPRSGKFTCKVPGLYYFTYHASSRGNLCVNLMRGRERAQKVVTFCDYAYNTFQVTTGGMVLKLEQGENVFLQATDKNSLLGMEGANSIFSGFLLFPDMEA
C1q (human), sequence (P02747 29-245 limits assumed, chain 3 of 3, further chain): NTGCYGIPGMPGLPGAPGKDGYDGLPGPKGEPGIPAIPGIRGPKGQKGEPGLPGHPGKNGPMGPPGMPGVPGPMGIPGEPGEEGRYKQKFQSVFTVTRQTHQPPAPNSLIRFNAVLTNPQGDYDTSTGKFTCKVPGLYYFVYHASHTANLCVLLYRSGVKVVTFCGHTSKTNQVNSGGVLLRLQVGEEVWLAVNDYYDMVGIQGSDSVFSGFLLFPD
IgG1-7D8-E345R (antibody), sequence (heavy, form in doubt): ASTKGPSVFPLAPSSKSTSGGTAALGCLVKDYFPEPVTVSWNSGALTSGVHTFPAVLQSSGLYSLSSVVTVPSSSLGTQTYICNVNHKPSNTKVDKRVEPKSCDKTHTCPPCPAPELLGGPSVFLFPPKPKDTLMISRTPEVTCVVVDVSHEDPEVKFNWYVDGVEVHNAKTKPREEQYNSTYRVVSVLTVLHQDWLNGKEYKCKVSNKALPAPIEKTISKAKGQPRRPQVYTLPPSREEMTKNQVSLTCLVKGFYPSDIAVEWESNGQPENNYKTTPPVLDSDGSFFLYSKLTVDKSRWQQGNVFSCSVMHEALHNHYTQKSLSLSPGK

CH50 for C1q efficacy in a CDC assay on Raji cells (C1q (human) [2])	Substance	other results
1.33 µg/mL	7D8-K439E + 7D8-S440K mix	Kd (C1q (human) [1]): 3.6 nM
0.03 µg/mL	IgG1-7D8-E345R (antibody)	
0.77 µg/mL	IgG1-7D8-E382R (antibody)	
22.5 µg/mL	IgG1-7D8-G385D (antibody)	
> 30 µg/mL	IgG1-7D8-H310K (antibody)	
> 30 µg/mL	IgG1-7D8-H433A (antibody)	
> 30 µg/mL	IgG1-7D8-H433D (antibody)	
0.16 µg/mL	IgG1-7D8-H433R (antibody)	
0.96 µg/mL	IgG1-7D8-H435A (antibody)	
0.24 µg/mL	IgG1-7D8-H435R (antibody)	EC50 (read off the curve) (C1q (human) [3]): 2 µg/mL
11.2 µg/mL	IgG1-7D8-I253A (antibody)	
> 30 µg/mL	IgG1-7D8-I253D (antibody)	
> 30 µg/mL	IgG1-7D8-I253D/H433A (antibody)	
16.1 µg/mL	IgG1-7D8-I253Y (antibody)	
> 30 µg/mL	IgG1-7D8-K322A (antibody)	EC50 calculated from the CDC assay on Daudi cells (antibody concentration resulting in 50% lysis) (C1q (human) [2]): > 30 µg/mL
> 30 µg/mL	IgG1-7D8-K439E (antibody)	
0.09 µg/mL	IgG1-7D8-K439E/S440K (antibody)	
21.2 µg/mL	IgG1-7D8-N434A (antibody)	
0.63 µg/mL	IgG1-7D8-Q311A (antibody)	
> 30 µg/mL	IgG1-7D8-Q438D (antibody)	
> 30 µg/mL	IgG1-7D8-S440K (antibody)	
0.49 µg/mL	IgG1-7D8-WT (antibody)	Kd (C1q (human) [4]): 13.3 nM; Kd (C1q (human) [5]): 11.8 nM; Kd (C1q (human) [6]): 7.7 nM; Kd (C1q (human) [7]): 4.8 nM; EC50 (C1q (human) [8]): 2.05 µg/mL; Kd (C1q (human) [9]): 10.9 nM
> 30 µg/mL	IgG1-7D8-Y436D (antibody)	

Source: US20140242075A1
